Assay in all cases: cell-based or functional assay
For test [1], the target named is T1, human amylin-3 (a) receptor (human, UniProt P30988 25-474; O60896 24-148).
T1 sequence (looked up) 1: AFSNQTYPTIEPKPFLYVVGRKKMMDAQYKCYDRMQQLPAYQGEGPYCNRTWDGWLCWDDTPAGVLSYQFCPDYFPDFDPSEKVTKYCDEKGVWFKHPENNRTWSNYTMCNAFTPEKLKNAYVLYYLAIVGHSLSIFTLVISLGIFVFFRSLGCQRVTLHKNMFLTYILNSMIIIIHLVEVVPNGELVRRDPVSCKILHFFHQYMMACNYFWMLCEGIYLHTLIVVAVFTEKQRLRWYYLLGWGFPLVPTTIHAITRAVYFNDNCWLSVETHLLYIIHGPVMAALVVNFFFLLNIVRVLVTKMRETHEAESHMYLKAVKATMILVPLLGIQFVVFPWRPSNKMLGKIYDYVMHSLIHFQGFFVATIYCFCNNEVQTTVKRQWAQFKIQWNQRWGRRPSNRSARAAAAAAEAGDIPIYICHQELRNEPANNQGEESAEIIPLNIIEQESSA
T1 sequence (looked up) 2: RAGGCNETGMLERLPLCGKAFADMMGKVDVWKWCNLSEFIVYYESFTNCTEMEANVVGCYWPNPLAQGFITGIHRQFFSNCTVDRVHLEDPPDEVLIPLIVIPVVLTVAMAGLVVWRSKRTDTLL

Test [2] deals with T2, human GLP-1 receptor (human, UniProt P43220 24-463).
Test [3] has as its target T1, human amylin-3 (a) receptor. The source holds these as a separate data set.
Test [4] has as its target T2, human GLP-1 receptor. The source holds these as a separate data set.
The target of test [5] is T1, human amylin-3 (a) receptor. This is another data set of the same source.

Like-named read-outs stand apart in the source and are kept apart here. Starred links: 1 amine or outer side, 2 acyl side, 3 side chain; linkers in the order of their positions; H or OH if unused. Non-standard residues stand in square brackets, D forms with d. Groups on a side chain read outwards from the residue. *: point of attachment. C18 diacid = O=C(O)CCCCCCCCCCCCCCCCC(=O)*; γGlu = O=C(O)[C@H](CCC(=O)[*:2])N[*:1]; AEEA = NCCOCCOCC(=O)O; Aib = CC(C)(N)C(=O)O

B1: Comparator compound 0671 (peptide)
peptide: H[Aib]EGTFTSDVSSYLEEQAAREFIAWLVRGRK([AEEA-AEEA-γGlu-C18 diacid])GGGGEKCNTATCATQRLANFLVHSSNNFGPILPPTNVGSNTY-NH2
modifications: ends and bridges not checked
In the case of B1, the “Human AmyR3 potency [EC50 (pM)]” value in test [1] is 230 pM. The “Human GLP-1R potency [EC50 (pM)]” value in test [2] is 4.5 pM.

B2: Compound 0111 (peptide)
peptide: H[Aib]EGTFTSDVSSYLEEQAAREFIAWLVRGRK([AEEA-AEEA-γGlu-C18 diacid])GGGGEASELSTAALGRLSAELHELATLPRTETGSGSP-NH2
With B2, the “Human AmyR3 potency [EC50 (pM)]” value in test [1] and in test [3] was 11.5 pM each time. Besides, the “Human GLP-1R potency [EC50 (pM)]” value in test [2] and in test [4] was 3 pM in each case.

Take KCNTATCATQRLANFLVHSSNNFGPILPPTNVGSNTY [Pramlintide]: the “Human AmyR3 potency [EC50 (pM)]” value in test [5] and in test [1] was 7.8 pM throughout.

B3: Comparator compound 0672 (peptide)
peptide: H[Aib]EGTFTSDVSSYLEEQAAREFIAWLVRGRK([AEEA-AEEA-γGlu-C18 diacid])GGGGEKCNTATCATQRLAEFLRHSSNNFGPILPPTNVGSNTP-NH2
modifications: ends and bridges not checked
With B3, in test [1], the “Human AmyR3 potency [EC50 (pM)]” value stood at 606 pM. The “Human GLP-1R potency [EC50 (pM)]” value in test [2] stood at 2.2 pM.

Source of the values: patent publication US20260132182A1 (published 2026).
